The values that follow are results of earlier work, collected in paper PMC1087504.

This data set addresses 3 beta-hydroxysteroid dehydrogenase (Bos taurus) (UniProt P14893).
Chain of UniProt P14893 (P14893 whole entry): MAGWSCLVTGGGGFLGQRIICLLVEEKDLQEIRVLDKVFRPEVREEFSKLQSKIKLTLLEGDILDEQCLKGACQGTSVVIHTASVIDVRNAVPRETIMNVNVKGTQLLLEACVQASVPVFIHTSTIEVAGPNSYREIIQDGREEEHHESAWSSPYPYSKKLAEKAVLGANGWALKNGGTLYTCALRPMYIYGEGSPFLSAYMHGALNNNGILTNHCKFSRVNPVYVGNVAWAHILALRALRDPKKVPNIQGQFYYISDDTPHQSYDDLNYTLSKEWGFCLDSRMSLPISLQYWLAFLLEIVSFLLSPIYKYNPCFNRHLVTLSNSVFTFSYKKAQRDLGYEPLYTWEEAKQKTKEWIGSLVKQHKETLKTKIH

Turning to P450scc (from UniProt P00189), the Kd is 120 nM.

Broadly, the Kd is the equilibrium constant for the complex coming apart.
